Experimental data reported in publication PMC7295969.

Biological target: Orfelia fultoni luciferase (Orfelia fultoni (endogenous in larvae))
Test: native gel or EMSA; 6% Native-PAGE of the luciferase fraction from anion exchange, no SDS or mercaptoethanol, 25 mM Tris/192 mM glycine, ice-cooled; band shown by bioluminescence with hot extract; the luminescent ~220 kDa band was eluted and re-run on denaturing SDS-PAGE (single ~70 kDa band)

stoichiometry N: 3
Substance: Orfelia fultoni luciferase (enzyme)
